The results in this text go back to article PMC12022973, “Proteomimetic Strategy for the Modulation of Intrinsically Disordered Protein MYC” (Journal of the American Chemical Society, 2025).

Positions of bridges follow the written chain, without caps; N, C: chain ends. Chains are numbered I, II in the order given. No end group written: not given here.

The test deals with T1, recombinant human MYC^353–437 protein (human).
T1 construct: MYC, human, residues 353-437; Aggregates above 5 μM; also called His6-MYC^353–437; source: recombinant
As to the kind of experiment: fluorescence polarisation; fluorescein-labeled CHDs with His6-MYC^353–437, His6-MAX or the MYC/MAX complex; MYC up to 5 μM (aggregation above). Conditions: both partners purified. (Polarisation of emitted light reports the rotation of a fluorescent probe.)

B1: fluorescein-labeled CHD^Max-1 (cross-linked helix dimer derived from MAX) (designed binder)
chain 1: LREKIATLQWCIEELRK
chain 2: LRRKNETHQWEIEELC
modifications: bridge I:11-II:16; not fully specified (bridges); also: fluorescein label, chain and position not given here
As usually defined, the Kd is the free concentration of one partner at which half of the binding sites on the other are occupied at equilibrium, for simple one-to-one binding. Consider B1, for which the Kd worked out at 350 ± 17 nM.

B2: fluorescein-labeled CHD^Max-3 (negative control) (designed binder)
chain 1: LREKAATLQWCIEELRK
chain 2: LRRKAETAQWEIEELC
modifications: bridge I:11-II:16; not fully specified (bridges); also: fluorescein label, chain and position not given here
With B2, the Kd was more than 5000 nM.

B3: fluorescein-labeled CHD^Max-2 (designed binder)
chain 1: LREKIATLQWCIEELRK
chain 2: LEARIETHQWRIRELCE
modifications: bridge I:11-II:16; not fully specified (bridges); also: fluorescein label, chain and position not given here
With B3, the Kd was 880 ± 53 nM.
